Measurements as given in patent US20210009693A1 (MABSPACE BIOSCIENCES SUZHOU, published 2021).
Residue numbers refer to the chain shown, from its start. Where two headings read alike, the source gives them in different places. Each block holds one binder with its values, some of them ahead of it.

Legend:
[1] = target: T1, human PD-L1 expressed on cells (human, UniProt Q9NZQ7 19-290); test: FACS, IFN-gamma stimulated HCC827 cells
T1 construct: whole, on cells; also called hPD-L1 expressed on HCC827; hPD-L1 on MC38/hPD-L1 cells
T1 sequence (Q9NZQ7 19-290): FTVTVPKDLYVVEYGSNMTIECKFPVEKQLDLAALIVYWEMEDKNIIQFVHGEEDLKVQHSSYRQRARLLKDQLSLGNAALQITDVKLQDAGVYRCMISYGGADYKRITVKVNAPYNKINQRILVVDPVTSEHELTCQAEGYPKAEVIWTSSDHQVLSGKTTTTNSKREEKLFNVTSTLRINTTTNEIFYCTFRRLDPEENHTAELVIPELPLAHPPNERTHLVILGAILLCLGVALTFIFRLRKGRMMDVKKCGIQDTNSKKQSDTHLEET
Procedure: Log phase IFN-γ stimulated (500U/ml for 2 days) HCC827 cells were collected and resuspended in blocking buffer (5% BSA+PBS). 2×10\hat{ }5 cells were added to each tube and then washed once with PBS (1500 rpm, 5 mins, RT). The 100 μl/tube serial diluted biotinylated PD-L1 antibodies with blocking buffer were added into corresponding tubes and incubate at 4° C. for 1 hr.

[2] = target: hPD-L1 (antigen of the Biacore assay) (human, UniProt Q9NZQ7 19-238, limits assumed); test: SPR (Biacore), antibody captured on anti-human Fc, antigen in flow
hPD-L1 (antigen of the Biacore assay), sequence (Q9NZQ7 19-238 limits assumed): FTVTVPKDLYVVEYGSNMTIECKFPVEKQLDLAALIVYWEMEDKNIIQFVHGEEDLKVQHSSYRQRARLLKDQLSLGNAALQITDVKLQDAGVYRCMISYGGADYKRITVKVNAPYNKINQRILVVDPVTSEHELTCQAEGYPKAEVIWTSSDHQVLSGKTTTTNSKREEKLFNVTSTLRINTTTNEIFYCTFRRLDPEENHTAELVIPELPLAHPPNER
Procedure: A CM5 sensor chip was activated in each flow cell by 7-min injection (10 μl/min) of freshly prepared 1:1 50 mM N-hydroxysuccinimide (NHS): 200 mM 1-ethyl-3-(3-dimethylaminopropyl)-carbodiimide (EDC). Then anti-human Fc antibody (GE Healthcare) in a concentration of 10 μg/ml in 10 mM sodium acetate buffer PH 5.0 was injected onto the activated chip at 10 μl/min (HBS-EP running buffer: 10 mM HEPES, 150 mM NaCl, 3.4 mM EDTA, 0.005% surfactant P20, pH 7.4). The remaining active coupling sites were blocked by 7 min injection of 1M ethanolamine at 10 μl/min. The immobilization level of each flow cell is ˜9000RU. Antibodies were captured in FC2 by anti-human Fe IgG (GE Healthcare) to 200˜300RU. FC1 was used as the reference cell. Antigen was injected at varying concentrations after capture of antibody. The association time for antibody binding antigen is 180s. Surface Regeneration condition is 120s at 10 μl/min in Gly pH1.5. The signals with captured antibody subtracted from those without captured antibody were calculated with Biacore X100 evaluation software ver. 2.0 (Biacore).

[3] = target: T1, human PD-L1 expressed on cells; test: blocking FACS on HCC827 cells; blocked ligand: biotinylated hPD-1-N297A
Procedure: (§1) Log phase IFN-γ stimulated (500U/ml for 2 days) HCC827 cells were collected and resuspended in blocking buffer (5% BSA+PBS). 2×10\hat{ }5 cells were added to each tube and then washed once with PBS (1500 rpm, 5 mins, RT). The 100 μl/tube serial diluted PD-L1 antibodies (see FIG. 8) with blocking buffer were added into corresponding tubes and incubate at 4° C. for 1 hr. […] After washing for three times with PBS, 100 μl/tube streptavidin-PE 1:200 (EBiosciences) in blocking buffer was added to each tube. The cells were incubated at 4° C. for 1 hr and then washed twice with PBS, followed by resuspending cells in 150 μl PBS for each sample. The cells were then transferred into FACS tube and the binding of the antibodies to the cells were detected with flow cytometry (ACEA Bioscience Novocyte).

[4] = target: T2, Human PD-L1/CD274 with C-Fc Tag (hPD-L1-Fc) (human, UniProt Q9NZQ7 19-238); test: blocking ELISA on coated hPD-L1-Fc; blocked ligand: biotinylated hPD-1-N297A
T2 construct: range 19-238; ACRO Biosystem PD1-H5258, made in HEK293; also called human PD-L1-Fc; not shown: Fc fragment of human IgG1 at C-terminus
T2 sequence (Q9NZQ7 19-238 limits assumed): as above
Procedure: High-binding clear polystyrene 96 well plates (Nunc) were coated with 100 μl/well of coating solution consisting of 1 μg/ml hPD-L1-Fc overnight at 4° C. Then the plates were washed once on an automatic plate washer using washing buffer (PBS+0.1% Tween 20 (Sigma)). 200 μl of blocking buffer (PBS+1% BSA+1% normal goat serum+0.05% Tween-20) was added to each well and incubated 2 hours at room temp. […] The plates were then washed 3 times using the method described above. […] After the plates were washed 3 times, 100 μl/well of a solution of 1:5000 diluted HRP conjugated Neutravidin antibody (Pierce) in dilution buffer was then added to each well of the plate. After that the ELISA plates were allowed to incubate for 60 min at RT, then the plates were washed 3 times with 250 μl/well washing buffer. Finally, 100 μl/well of TMB was added to each well and the reaction was terminated using 0.64M H₂SO₄. The plates were read on a Thermo Multiscan FC at 450 nM (see FIG. 18A to 18D).

[5] = target: T1, human PD-L1 expressed on cells; test: FACS, IFN-gamma stimulated HCC827 cells; remark: listed apart in the source
[6] = target: T1, human PD-L1 expressed on cells; test: blocking FACS on HCC827 cells; blocked ligand: biotinylated hPD-1-N297A; remark: listed apart in the source
Procedure: as §1, with “RT).” for “RT). The 100 μl/tube serial diluted PD-L1 antibodies (see FIG. 8) with blocking buffer were added into corresponding tubes and incubate at 4° C. for 1 hr.”, “1:200” for “1:200 (EBiosciences)”, “Novocyte) (see FIGS. 20A and 20B).” for “Novocyte).”

EC50 (read off the curve) [1]: ~0.1 µg/mL
Kd [2]: 6.36 nM
koff [2]: 0.000927 s⁻¹
kon [2]: 150000 M⁻¹ s⁻¹
IC50 (read off the curve) [3]: ~0.1 µg/mL
IC50 (read off the curve) [4]: ~0.06 µg/mL
B1: 4B6-H3L3 (antibody, V domains shown)
VH: QVQLVQSGAEVVKPGASVKISCKASGYVFTDYYMNWVKQAPGQGLEWIGDINPNNGGTSYNQKFQGRATVTVDKSTRTAYMELSRLRSDDTAVYYCVKWGDGPFAYWGQGTLVTVSS
VL: DIQMTQSQSSLSASVGDRVTITCQASQNVGAAVAWYQQKPGKAPKLLIYSASNRYTGVPSRFSGSGSGTDFTLTISSMQPEDIATYFCQQYSNYPTFGSGTKLGIK
notes: Humanized; also called humanized 4B6 H3L3

EC50 (read off the curve) [5]: ~0.04 µg/mL
IC50 (read off the curve) [6]: ~0.02 µg/mL
IC50 (read off the curve) [4]: ~0.03 µg/mL
B2: 4B6-H3L4 (antibody, V domains shown)
VH: B1 VH
VL: B1 VL with Q8P, R54L, M78L
notes: produced in 293 cells; light chain constant region not described; also called humanized 4B6 H3L4
